Results as given in PMC9694015.

How the values were obtained:
[1] = target: bacterial chalcone isomerase (CHI) from Eubacterium ramulus (Eubacterium ramulus) (UniProt V9P0A9); assay: crystal structure; hanging drop at 293 K, 6.8 mg/mL protein in 50 mM sodium phosphate pH 6.8; reservoir ammonium sulphate (1.8 M for CHI, 1.5 M for CHI_H33A), 0.2 M NaCl, 0.1 M HEPES pH 7.5; crystals soaked 10 min with 2.5 mM (+)-taxifolin; data at 100 K; hexamer seen in the asymmetric unit
[2] = target: bacterial chalcone isomerase (CHI) from Eubacterium ramulus, His33Ala variant (Eubacterium ramulus) (UniProt V9P0A9); assay: as above

Substance	stoichiometry N [1]	stoichiometry N [2]
bacterial chalcone isomerase (CHI) from Eubacterium ramulus (from UniProt V9P0A9 1-283) (enzyme)	6	
bacterial chalcone isomerase (CHI) from Eubacterium ramulus, His33Ala variant (from UniProt V9P0A9 1-283) (enzyme)		6
